This note sets out measurements from publication PMC5684140.

This experiment addresses JMJD8-FLAG-HA (HeLa-JMJD8-FLAG-HA) (human) (UniProt Q96S16). The experiment is described as follows: SEC; gel filtration (Superdex 200) of total cell lysate of HeLa S3 cells stably expressing JMJD8-FLAG-HA; fractions immunoblotted with anti-FLAG. For orientation: Size exclusion chromatography separates by hydrodynamic size, large species first.

Consider “JMJD8-FLAG-HA (HeLa-JMJD8-FLAG-HA) (from UniProt Q96S16-1 24-264) (natural protein)”, for which the stoichiometry N (as a rule, a count of units in the complex or per binding partner) turned out to be 2.
